Data: the supplement of paper PMC9112550, “Optimization of the antimicrobial peptide Bac7 by deep mutational scanning” (BMC Biology, 2022)

These sequences were tested on Escherichia coli TOP10 (assay: shrunken log2 fold change of peptide-encoding DNA abundance (4.5 h post-induction vs induction); higher = less antimicrobial activity (less host growth inhibition)). Conditions: time post-induction: 4.5 h; library: site-saturation at positions 5, 18, 19, 20.
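Note: peptides expressed intracellularly from a pBAD plasmid library in pooled LB shake-flask culture, induced with 0.3% L-arabinose, DNA abundance read by NGS, three biological replicates, DESeq2 with apeglm shrinkage.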

In order of rising “shrunken log2 fold change” value:
1. RRIRHRPPRLPRPRPRPYGEPRP  -1.23
2. RRIRPRPPRLPRPRPRPHINPRP  -1.16
3. RRIRFRPPRLPRPRPRPLYHPRP  -0.859
4. RRIRGRPPRLPRPRPRPYHTPRP  -0.779
5. RRIRTRPPRLPRPRPRPNDNPRP  -0.739
6. RRIRTRPPRLPRPRPRPYSYPRP  -0.692
7. RRIRIRPPRLPRPRPRPHIIPRP  -0.614
8. RRIRNRPPRLPRPRPRPSCVPRP  -0.599
9. RRIRVRPPRLPRPRPRPPYMPRP  -0.592
10. RRIRIRPPRLPRPRPRPSPQPRP  -0.512
11. RRIRRRPPRLPRPRPRPWNMPRP  -0.479
12. RRIRMRPPRLPRPRPRPQGDPRP  -0.477
13. RRIRRRPPRLPRPRPRPCIIPRP  -0.474
14. RRIRERPPRLPRPRPRPLTHPRP  -0.413
15. RRIRQRPPRLPRPRPRPSKLPRP  -0.401
16. RRIRSRPPRLPRPRPRPDCYPRP  -0.374
17. RRIRVRPPRLPRPRPRPDIIPRP  -0.35
18. RRIRKRPPRLPRPRPRPFSYPRP  -0.324
19. RRIRIRPPRLPRPRPRPVFCPRP  -0.321
20. RRIRQRPPRLPRPRPRPDCYPRP  -0.304
21. RRIRNRPPRLPRPRPRPFMIPRP  -0.294
22. RRIRARPPRLPRPRPRPQHRPRP  -0.281
23. RRIRSRPPRLPRPRPRPCRNPRP  -0.273
24. RRIRNRPPRLPRPRPRPAHNPRP  -0.259
25. RRIRSRPPRLPRPRPRPQHPPRP  -0.239
26. RRIRMRPPRLPRPRPRPWIQPRP  -0.228
27. RRIRGRPPRLPRPRPRPHNNPRP  -0.215
28. RRIRPRPPRLPRPRPRPNISPRP  -0.208
29. RRIRVRPPRLPRPRPRPHPVPRP  -0.201
30. RRIRLRPPRLPRPRPRPIGIPRP  -0.179
31. RRIRQRPPRLPRPRPRPRCMPRP  -0.164
32. RRIRYRPPRLPRPRPRPQYGPRP  -0.161
33. RRIRKRPPRLPRPRPRPFMKPRP  -0.157
34. RRIRDRPPRLPRPRPRPKCMPRP  -0.153
35. RRIRVRPPRLPRPRPRPTFKPRP  -0.152
36. RRIRVRPPRLPRPRPRPCGKPRP  -0.15
37. RRIRYRPPRLPRPRPRPPKVPRP  -0.149
38. RRIRKRPPRLPRPRPRPMFFPRP  -0.14
39. RRIRYRPPRLPRPRPRPFKCPRP  -0.135
40. RRIRERPPRLPRPRPRPFWKPRP  -0.125
41. RRIRFRPPRLPRPRPRPYEVPRP  -0.12
42. RRIRHRPPRLPRPRPRPLVNPRP  -0.117
43. RRIRQRPPRLPRPRPRPKIVPRP  -0.113
44. RRIRMRPPRLPRPRPRPVHQPRP  -0.112
45. RRIRKRPPRLPRPRPRPKWIPRP  -0.111
46. RRIRQRPPRLPRPRPRPMKRPRP  -0.111
47. RRIRGRPPRLPRPRPRPHHDPRP  -0.102
48. RRIRLRPPRLPRPRPRPTSHPRP  -0.0914
49. RRIRLRPPRLPRPRPRPMSNPRP  -0.089
50. RRIRQRPPRLPRPRPRPKFDPRP  -0.0817
51. RRIRPRPPRLPRPRPRPGKQPRP  -0.0793
52. RRIRNRPPRLPRPRPRPMVGPRP  -0.0679
53. RRIRYRPPRLPRPRPRPWPEPRP  -0.0592
54. RRIRNRPPRLPRPRPRPISGPRP  -0.0579
55. RRIRKRPPRLPRPRPRPQGTPRP  -0.0539
56. RRIRVRPPRLPRPRPRPTFCPRP  -0.0418
57. RRIRNRPPRLPRPRPRPHDIPRP  -0.0337
58. RRIRCRPPRLPRPRPRPCDFPRP  -0.0328
59. RRIRQRPPRLPRPRPRPFWGPRP  -0.0312
60. RRIRHRPPRLPRPRPRPPYQPRP  -0.028
61. RRIRLRPPRLPRPRPRPYHQPRP  -0.026
62. RRIRLRPPRLPRPRPRPWQTPRP  -0.0245
63. RRIRSRPPRLPRPRPRPIHAPRP  -0.0213
64. RRIRPRPPRLPRPRPRPEMTPRP  -0.0182
65. RRIRLRPPRLPRPRPRPFDIPRP  -0.0171
66. RRIRYRPPRLPRPRPRPTAWPRP  -0.011
67. RRIRIRPPRLPRPRPRPGEWPRP  -0.01
68. RRIRHRPPRLPRPRPRPWLTPRP  -0.00695
69. RRIRLRPPRLPRPRPRPQLRPRP  -0.00627
70. RRIRCRPPRLPRPRPRPWEPPRP  -0.00185
71. RRIRDRPPRLPRPRPRPVQQPRP  -0.00151
72. RRIRTRPPRLPRPRPRPHWKPRP  0.00556
73. RRIRNRPPRLPRPRPRPQDDPRP  0.00776
74. RRIRERPPRLPRPRPRPYMEPRP  0.0111
75. RRIRQRPPRLPRPRPRPCSHPRP  0.0226
76. RRIRFRPPRLPRPRPRPCEMPRP  0.0297
77. RRIRSRPPRLPRPRPRPELPPRP  0.0311
78. RRIRTRPPRLPRPRPRPTHNPRP  0.0318
79. RRIRERPPRLPRPRPRPIQPPRP  0.0319
80. RRIRYRPPRLPRPRPRPGGKPRP  0.0336
81. RRIRIRPPRLPRPRPRPIGEPRP  0.0399
82. RRIRFRPPRLPRPRPRPDAIPRP  0.041
83. RRIRMRPPRLPRPRPRPQALPRP  0.0439
84. RRIRTRPPRLPRPRPRPNVWPRP  0.0477
85. RRIRCRPPRLPRPRPRPRSAPRP  0.0532
86. RRIRLRPPRLPRPRPRPPFQPRP  0.0582
87. RRIRHRPPRLPRPRPRPPDFPRP  0.0633
88. RRIRSRPPRLPRPRPRPSAHPRP  0.0639
89. RRIRYRPPRLPRPRPRPRSRPRP  0.07
90. RRIRMRPPRLPRPRPRPTAIPRP  0.072
91. RRIRCRPPRLPRPRPRPKEWPRP  0.0878
92. RRIRARPPRLPRPRPRPSKEPRP  0.103
93. RRIRCRPPRLPRPRPRPRHPPRP  0.11
94. RRIRWRPPRLPRPRPRPHQLPRP  0.117
95. RRIRRRPPRLPRPRPRPNKHPRP  0.117
96. RRIRFRPPRLPRPRPRPAMGPRP  0.119
97. RRIRRRPPRLPRPRPRPHKNPRP  0.126
98. RRIRSRPPRLPRPRPRPCCYPRP  0.145
99. RRIRERPPRLPRPRPRPHAWPRP  0.146
100. RRIRSRPPRLPRPRPRPVTQPRP  0.168
101. RRIRIRPPRLPRPRPRPRRRPRP  0.169
102. RRIRDRPPRLPRPRPRPRRHPRP  0.172
103. RRIRTRPPRLPRPRPRPRANPRP  0.177
104. RRIRSRPPRLPRPRPRPQFEPRP  0.189
105. RRIRFRPPRLPRPRPRPTHAPRP  0.207
106. RRIRARPPRLPRPRPRPEVAPRP  0.214
107. RRIRQRPPRLPRPRPRPPCFPRP  0.222
108. RRIRQRPPRLPRPRPRPERPPRP  0.223
109. RRIRVRPPRLPRPRPRPAKEPRP  0.226
110. RRIRVRPPRLPRPRPRPEENPRP  0.265
111. RRIRARPPRLPRPRPRPDPGPRP  0.29
112. RRIRFRPPRLPRPRPRPAFWPRP  0.516
113. RRIRARPPRLPRPRPRPLRTPRP  0.541
114. RRIRCRPPRLPRPRPRPRKAPRP  0.578
115. RRIRVRPPRLPRPRPRPAPQPRP  0.618
116. RRIRCRPPRLPRPRPRPRQRPRP  0.645
117. RRIRCRPPRLPRPRPRPLQAPRP  0.646
118. RRIRGRPPRLPRPRPRPTLKPRP  0.769
119. RRIRRRPPRLPRPRPRPGMRPRP  0.792
120. RRIRGRPPRLPRPRPRPGHAPRP  0.801
121. RRIRGRPPRLPRPRPRPTVGPRP  0.832
122. RRIRGRPPRLPRPRPRPRLWPRP  1.36
123. RRIRRRPPRLPRPRPRPPQNPRP  1.4
124. RRIRKRPPRLPRPRPRPDAEPRP  1.59
125. RRIRVRPPRLPRPRPRPHHRPRP  3.34
